Measured values as given in patent publication US20100092505A1, “Method for Shielding Functional Sites or Epitopes on Proteins” (priority 2005, published 2010).
Where no end group is shown, it is not given here.

Experiments:
patients = details: cited from earlier work
[1] = disulfide-linked trimer; refers to U.S. Provisional Applications 60/576,062 and 60/636,724; cited from earlier work
guinea pigs = experiment: ELISA of sera from guinea pigs immunized under homologous and heterologous Prime/Boost regimens; type: in vivo; details: guinea pig serum; prime plus two boosts; PEGylated vaccine in both homologous and heterologous modality; QS21 adjuvant
Procedure: The Prime/Boost pair is shown below each group of bars. The ELISA geometric mean titers (GMT) against each antigen are a true reflection of the relative amount of antibodies with the corresponding specificity present in the serum.
Immunogenicity of the SMW-PEGylated vaccine—Animal studies were conducted in guinea pigs to compare the antibody response elicited by the non-PEGylated vaccine (CCIZN17)3 and the PEGylated vaccine (CCIPN17)3. The latter was used both in a homologous modality (i.e., using a priming injection with the antigen, followed by two boost injections with the same antigen) and a heterologous modality (i.e., using a priming injection with the non-PEGylated antigen (CCIZN17)3, followed by two boost injections with the PEGylated antigen (CCIPN17)3) (see FIG. 4). The PEGylated antigens were administered to the animals along with QS21 as an adjuvant (Antigenics; New York, N.Y.). Analysis of the immune response was performed by ELISA. To eliminate any bias due to differences in the absorption capacity of the antigens on the ELISA plate, all the capture antigens were biotinylated, and the ELISA plate was coated with streptavidin prior to the addition of the capture biotinylated molecules. […] This is identical in (CCIZN17)3 and (CCIPN17)3 and, accordingly, the measured GMT are identical when measured against either antigen.

[2] = Isoelectric point (pI) of chimeric peptides and gp41 mimetics; type: physicochemical

AN-1792: Elan/Wyeth Aβ 1-42 peptide vaccine for Alzheimer disease, clinical trial discontinued
therapeutic effect in the clinical trial (patients; patients with high titers of Aβ antibodies): reduction of plaque and some limited stabilization of memory | adverse effect that led to discontinuation of the clinical trial (patients; patients, attributed to a T-cell response to the COOH-terminal region of Aβ): severe brain inflammation problems | induction of antibodies specific for the pathological form of Aβ (patients; vaccinated patients): induced in the majority of patients

(CCGGIKKEIEAIKKEQEAIKKKIEAIEKLLQLTVWGIKQLQARIL)3 (not fully specified (N-terminus, C-terminus, bridges); printed as (CCGGIKKEIEAIKKEQEAIKKKIEAIEKLLQLTVWGIKQLQARIL)3; also: disulfide-linked trimer) [(CCIZN17)3]
stability relative to the non-covalent IZN17 trimeric coiled-coil [1]: more stable than the original IZN17 trimeric coiled-coil | antibody response against the scaffold moiety (ELISA GMT, capture antigens (Biotin-CCIZ)3 and (Biotin-CCIP)3) (guinea pigs): comparable amounts against the whole antigen and the scaffold moiety alone

IEKKIEEIEKKIEEIEKKIEEIEKLLQLTVWGIKQLQARIL [EZN17]
pI ([2]; chimeric N-peptide): 5.2

IKKEIEAIKKEQEAIKKKIEAIEKLLQLTVWGIKQLQARIL [IZN17]
pI ([2]; chimeric N-peptide): 10.7

(CCGGIEKKIEEIEKKIEEIEKKIEEIEKLLQLTVWGIKQLQARIL)3 [(CCEZN17)3]
pI ([2]; Table 6, gp41 mimetics): 5.30
